# B1: Pro-Tgase SEQ ID NO:3: variant of Streptomyces mobaraensis Tgase zymogen form (pro-Tgase), SEQ ID NO:3 (protein)
# chain: MDNGAGEETKSYAETYRLTADDVANINALNESAPAASSAGPSFRAPDPDDRVTPPAEPLDRMPDPYRPSYGRAETVVNNYIRKWQQVYSHRDGRKQQMTEEQREWLSYGCVGVTWVNSGQYPTNRLAFASFDEDRFKNELKNGRPRSGETRAEFEGRVAKESFDEEKGFQRAREVASVMNRALENAHDESAYLDNLKKELANGNDALRNEDARSPFYSALRNTPSFKERNGGNHDPSRMKAVIYSKHFWSGQDRSSSADKRKYGDPDAFRPAPGTGLVDMSRDRNIPRSPTSPGEGFVNFDYGWFGAQTEADADKTVWTHGNHYHAPNGSLGAMHVYESKFRNWSEGYSDFDRGAYVITFIPKSWNTAPDKVKQGWPLEHHHHHH
# Assay: Colorimetric hydroxamate Tgase activity assay
# Type: biochemical
# Settings: zymogen purified on Ni-IMAC resin and desalted
# Experimental: The cells were lysed using a high-pressure homogenizer at pressures from 15000-20000 psi. The crude lysates were clarified through centrifugation at 15000×g for up to 60 minutes. The clarified lysate containing pro-Tgase SEQ ID NO:3 was evaluated by sodium dodecyl sulfate polyacrylamide gel electrophoresis (SDS-PAGE) and spectroscopy (A280 nm). The clarified lysate was further purified by affinity column on a Ni-IMAC resin and desalted.
molecule,measurement,value
B1,Tgase activity (colorimetric hydroxamate activity assay),little to no activity
